Measured values as given in publication PMC9170159 (Proceedings of the National Academy of Sciences of the …, 2022).
Values joined by “and” are separate entries in the source; they are usually repeats but may differ in a detail not shown here. Identical values can stand only once.

B1: NCI-CoV-8A2 VHH-hFc fusion protein (Fc fusion)
VHH: AVQLVDSGGGSVQAGGSLRLSCAASGYTYSICTMGWYRQAPGEGLEWVSGINADGSNTHYTDSVKGRFTISRDNAKKTLYLQMNSLKPEDTAIYYCAAHGTYDKYAPCGGFAGTYTYWGQGTQVTVSS
notes: also called 8A2 VHH-Fc; source: Expi293 cells, transfected, purified (protein A column)
B2: NCI-CoV-7A3 VHH-hFc fusion protein (Fc fusion)
VHH: QVQLVESGGGSVQPGGSLRLSCVVSGYTSSSRYMGWFRQVPGKGLEWVSGIKRDGTNTYYADSVKGRFTISQDNAKNTVYLQMNSLKPEDTAMYYCAAGSWYNQWGYSMDYWGKGTQVTVSS
notes: also called 7A3 VHH-Fc; source: Expi293 cells, transfected, purified (protein A column)
B3: 1H6 VHH-hFc fusion protein (Fc fusion)
VHH: AVQLVDSGGGSVQAGGSLNLSCVASGTTLRNGCMAWFRQVPGKEREVVAIIIRATSYTDYADSVKGRFTISQDNAKNTVYLQMKSLTPEDTATYYCAATLYRVNCAKREFDKWGQGTQVTVSS
notes: also called 1H6 VHH-Fc; source: Expi293 cells, transfected, purified (protein A column)
B4: 8A4 VHH-hFc fusion protein (Fc fusion)
VHH: EVQLVESGGGLVQPGESLRLSCEASGFTFSSVYMSWVRQAPGKGLEWISTIHPAGGSTYYADSMKDRFTISRDNAKNTLYLQMNSLKSEDTALYYCIIEALSGYRGPGTQVTVSS
notes: also called 8A4 VHH-Fc; source: Expi293 cells, transfected, purified (protein A column)

target: T1, SARS-CoV-2 (Wuhan-Hu-1) spike receptor-binding domain, His-tagged (SARS-CoV-2, UniProt P0DTC2 319-541); test: BLI; settings: both partners purified

Binder	Kd
B1	0.26 nM and 0.13 nM
B2	0.19 nM and 0.2 nM
B3	37 nM and 42 nM
B4	0.14 nM and 0.18 nM

target: T1, SARS-CoV-2 (Wuhan-Hu-1) spike …; test: BLI; settings: both partners purified; remark: another data set of the same source

Binder	Kd
B1	0.26 nM
B2	0.2 nM
B4	0.16 nM
